Test results taken from the nanobody polyreactivity screen of Harvey et al. (2022).

assay: yeast display, Sf9 membrane polyspecificity reagent, FACS + sequencing; frameworks hold sequencing errors
Procedure, shortened: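 Sorting gates, low and high (top ~1%), were placed on anti-HA fluorescence to track expression and on streptavidin fluorescence to track reagent binding. A clone's polyreactivity label is taken from the gate it came out of. The reagent was 10% biotinylated, detergent-solubilized Sf9 membrane, applied for 1 hour at 4 °C to galactose-induced yeast display cells.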

| Sequence | polyreactivity (PSR sort gate) |
| --- | --- |
| QVQLVESGGGLVQAGGSLRLSCAASGSISRVYAMGWYRAAPGKERELVASISRSGGSTYYADSVKGRFTISRDNAKNTVYLQRNSLKPEDTAVYYCAKASKGQYRFDYWGQGTQVTVSS | low polyreactivity |
| QVQLVESGGGLVQAGGSLRLSCAASGSISSLNTMGWYRQAPGKERELVASISRRGGSTYYADSVKGRFTISRDNAKNTVYLQINSLKPEDTAVFYCAARGVGGTVPTRYDYWGQGTQVTVSS | high polyreactivity |
| QVQLVESGGGLVQAGGSLRLSCAASGSISSQNAMVSYRQAPGKERELVAAISWIGGSTYYADSVKGRFTISRDFAKNTVYLQMNSLKPEDTAVYYCAKDRARGFKYYYWGQGTQVTVSS | low polyreactivity |
| QVQLVESGGGLVQAGGSLRLSCAASGSISSWYAMGWYRQAPGKERELVAAISSGVTTYYADSVKGRFTISRDNAKNTVYLQMHSLKPEDTAVDYCAAKTALYRERGYWGQGTQVTVSS | low polyreactivity |
| QVQLVESGGGLVQAGGSLRLSCAASGSISSYAMGWYRQAPGKERELVASITWHGGGTYYADSVKGRFTISRDNAKNTVYLQMNSLKPEDTAVYYCNADYVYSWYEPLKYNYWGQGTQVTVSS | low polyreactivity |
| QVQLVESGGGLVQAGGSLRLSCAASGSISVNAMVWDRQAPGKERELVAVINRSGGNTYYADSVKGRFTISRDNAKNTVYLQMNSLKPEDTAVYYCAAKWTRSYSRYDYWGQVTQVTVSS | high polyreactivity |
| QVQLVESGGGLVQAGGSLRLSCAASGSISWWYAMGWYRQAPGKERELVAAISSRGGSTYYADSVKGRFTISRDNAKNTVYLQMNSLKPEDTAVYYCAKYYYVGTSFYQGDYWGQGTQVTVSS | low polyreactivity |
| QVQLVESGGGLVQAGGSLRLSCAASGSISYRYDMGWYRQAPGKERELVATIRSGGSTNYADSVKGRFTISRDNAKNTVYLQMNSMIPEDTAVYYCAARLYARKILHFSADSDYWGQGTQVTVSS | low polyreactivity |
| QVQLVESGGGLVQAGGSLRLSCAASGSISYRYVMGWYRQAPGKERELVAAITTSGGSTYYADSVKGRFTISRDNAKNTVYLQMNSLKPEDTAVYYCATVYQAAQLRSHYDYWGQGTQVTVSS | high polyreactivity |
| QVQLVESGGGLVQAGGSLRLSCAASGSISYYNAMGWYRQAPGKERELVATITDSGGSTYYADSVKGRFTISRDNAKNTVYLQLNSLKPEDTAVYYCAVDYSEWYSIYDYWGQGTQVTVSS | low polyreactivity |
| QVQLVESGGGLVQAGGSLRLSCAASGSIVGYAMGWYRQAPGKERELVAAISSGGSTNYADSVKGRFTISSDNAKNTVYLQMNSLKPVDTAVYYCAARRRYKSGYWGQGTQVTVSS | high polyreactivity |
| QVQLVESGGGLVQAGGSLRLSCAASGSIVPFYAMGWDRQAPGKERELVATISSGDSTHYADSVKGRFTISRDNAKNTVYLQMNSLKPEDTAVYYCNRRNKAQRFFELGYWGQGTQVTVSS | low polyreactivity |
| QVQLVESGGGLVQAGGSLRLSCAASGSIVPYNVMGWYRQAPGKERELVAAITRRGGSTYYADSVKGRFTISRDNAKNTVYLQMNSLKPEDSAVYYCAAVPYPRGKGYDYWGQGTQVTVSS | high polyreactivity |
| QVQLVESGGGLVQAGGSLRLSCAASGSIVRYSVGWYRQAPGKERELVAAISIGGTTYYADSVKGRFTISRDNAKNTVYLPMNSLKPEDTAVYYCNVRRRTWHYITSMDYWGQGTQVNVSS | high polyreactivity |
| QVQLVESGGGLVQAGGSLRLSCAASGSIVSTYAMGWYSQAPGKERELVAAITSTGSMNYADSVKGRFTISRDNAKNTVYLQMNSLKPEDTAVYYCAARYAGPSPTDTGHDYWGQGTQVTVSS | low polyreactivity |
| QVQLVESGGGLVQAGGSLRLSCAASGSIVTSNAMGWYRQAPGKERELVAAITSSSSTNYADSVKGRFTISRDNAKNTVYLQMNSLKPEDTAVYYCAADYTWYYPYWIMDYWGQGTQVTVSS | low polyreactivity |
| QVQLVESGGGLVQAGGSLRLSCAASGSIVYANTMGRYRQAPGKERELVAAIRSVGRTYYADSVKGRFTISRDNAKNTVYLQMNSLKPADTAVYYCAADPRSYFTSEYWGQGTQVTVSS | low polyreactivity |
| QVQLVESGGGLVQAGGSLRLSCAASGSIYDSYAMGWYRQAPGKERELVATINTSGGSTYYADSVKGRFTIHDNAKNTVYLQMNSLKPEDTAVYYCNAGRWVYWQNNFGDYGYWGQGTQVTVSS | low polyreactivity |
| QVQLVESGGGLVQAGGSLRLSCAASGSIYGDYVMGWYRQAPGKERELVAAINRGGYTYYADSVKGRFTISRDNAKNTVYLQMNSLKPEDTAVYYCAAGYPSWYYGYPYDSWGQGTQVTVSS | low polyreactivity |
| QVQLVESGGGLVQAGGSLRLSCAASGSIYGLNAMGWYRQAPGKESELVAAITWSGGSSTYYADSVKGRFTISRDNAKNTVYLQMNSLKPVDTAVYYCAAGRVFIPYYFRFYYWGQGTQVSVSS | high polyreactivity |
| QVQLVESGGGLVQAGGSLRLSCAASGSIYGPYAMGLYRQAPGKERELVAGITRSVGSTYYADSVKGRFTISRDYAKNTVYLQMNSLKPEDTAVYYCNAKWMYSRWAGYDYWGQGTQVTVSS | low polyreactivity |
| QVQLVESGGGLVQAGGSLRLSCAASGSIYGVKAMRWYRQAPGKERELVADITKSTGDTYADSVKGRFTISRDNAKNTVYLQMNSLKPEDTAGYYCNARVTVKQKRLYLYDFWGQGTQVTVSS | low polyreactivity |

| Sequence | polyreactivity (PSR sort gate) |
| --- | --- |
| QVQLVESGGGLVQAGGSLRLSCAASGSIYPNGLGWYRQAPGKERELVATITSGGSTYYADSVKGRFTISRDNAKNTVYLPMHSQKPEDTAVYYCAATVYGGYSGSGSNYWGQGTQVTVSS | low polyreactivity |
| QVQLVESGGGLVQAGGSLRLSCAASGSIYRQYAMGWSRPAPGKERELVAASRRGTSTYYADSVKGRFTLSRDNAKNTVYLHMNSLKPDDSAVYYCAADTSWYSWWFDYWGQGTQVTVSS | low polyreactivity |
| QVQLVESGGGLVQAGGSLRLSCAASGSIYRYYAMGWYRQAPGKETELVAAIRVSTGSTSYADSVKGRFTISRDNAKNTVYLQMNSLKPEDTAFYYCNAGVGYFVGTYYGFLPYDYWGQGTQVTVSS | high polyreactivity |
| QVQLVESGGGLVQAGGSLRLSCAASGSIYYNAMGWYRQAPGKERELVAAISTSGGTTYYADSVKGRFTISRDNAKNTVYLQMISQKPEDTAVYYCNARPSRRGAFDYWGQGTQVTVSS | high polyreactivity |
| QVQLVESGGGLVQAGGSLRLSCAASGSIYYRNAMGSYRQAPGKERELVAAISSTGSTYYADSVKGRFTISRDNAKNTVYLQMNSMKPEDTAVYYCAARQGYRSYRRYDSWGQGTQVTVSS | high polyreactivity |
| QVQLVESGGGLVQAGGSLRLSCAASGSIYYTYAMGWYRPAPGKERELVAAISKRGGSTYYADSVKGRFTISRDNAKNSVYLQMNSLKPEDTAVYYCAARYNAPRGGGSDDYWGQGTQVTVSS | high polyreactivity |
| QVQLVESGGGLVQAGGSLRLSCAASGSIYYYTMGWYRQAPGKERELVAAISRSGTRTYYADSVKGRFTISRDNAMYTVYLQMNSLKPEDTAGYYCAARILPPGDNVDDDYWGQGTQVTVSS | high polyreactivity |
| QVQLVESGGGLVQAGGSLRLSCAASGSLFFLYAMGWYRQAPGKDRELVAAISRTGSTYADSVKGRFTISRDNAKTTVYLQMNSVKPEDTAVYYCAAEYRYYWYGTMNYWGQCTQVTVSS | low polyreactivity |
| QVQLVESGGGLVQAGGSLRLSCAASGSLLADNAMGWSRQAPGKERELVAAISRRGGRTYYADSVKGRFTISRDNAKNTVYLQMNSLKPEDTAVYYCAAVGSFHIVDYWGQGTQVTVSS | high polyreactivity |
| QVQLVESGGGLVQAGGSLRLSCAASGSNFAKNAMGWYRQAPGKEREMVAAITYSGGSTYYADSVKGRFTISRDNAKNTVYVQMNSLKPEDTAVYYCAADVWWSYYRYDYWGQGTQVTVSS | low polyreactivity |
| QVQLVESGGGLVQAGGSLRLSCAASGSNFANYAMGWYRQAPGKEREFVAGISGSGGSTFYADSVKGRFTISRDNAKNTVYLQMNSLKPEDTAVYYCAVVQRSKRTYPWYDYWGQGTQVTVSS | low polyreactivity |
| QVQLVESGGGLVQAGGSLRLSCAASGSNFDLNAMGLYRQAPGKERELVAAISSGGGTYYADSVKGRFTIARDNAKNTVYLQMNSLKPEDTAVYYCNRVTRWTYNYWGQGTQVTVSS | high polyreactivity |
| QVQLVESGGGLVQAGGSLRLSCAASGSNFFSNAMGWYRQAPGKERELVAAITSSGASTYYADSVKGRFTISRDNAKNTVYLQMNSLKPEDTAVYYCAVVGGGKRYGYWGQGTQVTVSS | high polyreactivity |
| QVQLVESGGGLVQAGGSLRLSCAASGSNFGSYTMGWSRQAPGKERELVAAISLGGGSTYYADSVKGRFTISRDNAKNTVYLQMNSLKPEDTAVYYCAAGFTDPYDYWGQGTQVTVSS | low polyreactivity |
| QVQLVESGGGLVQAGGSLRLSCAASGSNFGYYPMGWYRQATGKERELVAAISWSDGSTYYADSVKGRFTISRDNAKNTVYLQMNSRKPEDTAVYYCAARFTPYITSDDGHYDYWGQGTQVTVSS | low polyreactivity |
| QVQLVESGGGLVQAGGSLRLSCAASGSNFGYYTLGWYRQAPGKERELVAAIRYGDGSTNYADSVKGRFTISRDNAKNTVYLKMNSLKPEDTAVYYCATRSQRGYRGYNYWGQGTQVTLSS | high polyreactivity |
| QVQLVESGGGLVQAGGSLRLSCAASGSNFIPNAMGWYRQAPGKERELVAAIRSGRSTYYADSVKGRITISRDNANNTVYLQMNSLQPEATAVYYCAADTYPYYYYLARYYYWGQCTQVTVSS | low polyreactivity |
| QVQLVESGGGLVQAGGSLRLSCAASGSNFKTYAMGLYRQAPGKERELVAAISSGGSTYYADSVKGRFTISRDNAKITVYLQMNSLKPEDTAVYYCAADPWGAFVSFASYYYWGQATQVTVSS | low polyreactivity |
| QVQLVESGGGLVQAGGSLRLSCAASGSNFRDNGMGWYRQAPGKERELVAAINSGDSTYYADSVKGRFTISRDNAKNTVYLQMNSLKPEDTAVYYCNADDRRALSQRQYDWYDYWGQGTQVTVSS | low polyreactivity |
| QVQLVESGGGLVQAGGSLRLSCAASGSNFRFYVMGWYRQAPGKERELVAAISIGGSTNYADSVKGRFTISRDNAKNSVYLQMNSLKPEDTAVYYCAADYWYGAGLPHGTEFDYWGQGTQVTVSS | low polyreactivity |
| QVQLVESGGGLVQAGGSLRLSCAASGSNFRGYTMGWYRQAPGKERELVANISTSVGRTYYADSVKGRFTISRDNAKNTVFLQMNSLKPEDTAVYYCNARRAYRWKPDTGSAGMDYWGQGTQVTVSS | high polyreactivity |
